Assay results: the DeepSol protein solubility set

Experiment: soluble on expression in E. coli; label from the status in PepcDB or PDB records
For “MTLDVPVNQGHVPPGSVACCLVGVTAVADGIAGHSLSNFGALPPEINSGRMYSGPGSGPLMAAAAAWDGLAAELSSAATGYGAAISELTNMRWWSGPASDSMVAAVLPFVGWLSTTATLAEQAAMQARAAAAAFEAAFAMTVPPPAIAANRTLLMTLVDTNWFGQNTPAIATTESQYAEMWAQDAAAMYGYASAAAPATVLTPFAPPPQTTNATGLVGHATAVAALRGQHSWAAAIPWSDIQKYWMMFLGALATAEGFIYDSGGLTLNALQFVGGMLWSTALAEAGAAEAAAGAGGAAGWSAWSQLGAGPVAASATLAAKIGPMSVPPGWSAPPATPQAQTVARSIPGIRSAAEAAETSVLLRGAPTPGRSRAAHMGRRYGRRLTVMADRPNVG”, the “soluble on expression in E. coli” value was “not soluble”.
With “MGSDKIHHHHHHMKKFLCFIMSVGLILSLVGCGKSGKTNIKVPAKSIDGKDSSISLDIMATNKFLYNVIKDISGNRHNVQFMFKNDIDVKQFDYTSDSINNVSKYNIFMYLGADFEPWASDFIGKLDKNSIATVDMSRGTKILNLDDKVQYGNITVEKNSYYWTDLNNYKTMLVNIKNSLEEKDPKSRDLYEKNFAAYIKKVNDCEKEFKGINDKLKGYTFVTNSSNFDYFFNYAGLDSVKVSEDELSKPDTSKELNDKLKDKEKICYIYSDDGSVQSNNAVIQKYKMKTLKFVTYDENSDYICIIKDNIKSMKELIK” the “soluble on expression in E. coli” value was “not soluble”.
With “MGSDKIHHHHHHMPGFSADLDCVPGSIRSQVEENYRVWRRAWITSSAQPAVNSSGRALRLQPRHTAQRRTASESGADAGGELNGITIPTTATTRYAERRGISIVRTYADEGKSGLRIDGRRALQQLIKDVEGGTADFQIILVYDVSRWGRFQDADESAYYECICRRAGIQVAYCAEQFENDGSPVSTIVKGVKRAMAREYSRELSAKVFAGQCRLIELGYRQGSPAGFGLRRVLIDQQGSSKGMLARGEQKSLQTDRVVLMPGPGDEIRIVHQIYRWFIDEGLGDSEIAMRLNSIRVRTDFDRYWTRATVHEVLTNEKYIGNNVYNRISFKLKKLRVVNTPDMWDQKGRRV” the “soluble on expression in E. coli” value was “not soluble”.
In the case of “MSAPAAAPKHPGKVFLDPSEVADHLAEYRIVDCRYSLKIKDHGSIQYAKEHVKSAIRADVDTNLSKLVPTSTARHPLPPCAEFIDWCMANGMAGELPVLCYDDECGAMGGCRLWWMLNSLGADAYVINGGFQACKAAGLEMESGEPSSLPRPATHWPFKTAFQHHYLVDEIPPQAIITDARSADRFASTVRPYAADKMPGHIEGARNLPYTSHLVTRGDGKVLRSEEEIRHNIMTVVQGAGDAADLSSFVFSCGSGVTACINIALVHHLGLGHPYLYCGSWSEYSGLFRPPIMRSIIDDYGMCMQMQTPSLGDNPKANLDTMTLKVDGAPCERPDAEVQSAATHLHAGEAATVYFKSGRVVTIEVPVVPNLEA”, the “soluble on expression in E. coli” value is reported as “soluble”.
With “MGSDKIHHHHHHMYDATHLFEPPVMTEEEKMERFKERIENGEKIEADDWMPDFYRDTLIKLISMHGISEIMGALPEKEWVPKAPSLRRKLGIMAKVQDEMGHGQLLLRVVEDLMKPYGKTRADLMDDLFTGRLKFHNVFHMPTRSWADAGTIGWLVDGAAIITQTNMLGASYGPYARALQRICAEEVFHAQHGESIIMALAEGTPEQKAMIQESLDEWWESLLMFFGPASKETTGTSKQDVTIAYKIRTKTNEELRQNFFTKYVPRIRSLGLIIPDPTLRFDEETGQWIYAQPDWTEFKKIIQGGCPRSKERLALRQTSYQNNAWVREALAETIG” the “soluble on expression in E. coli” value was “not soluble”.
In the case of “GPLGSGEEEPLPPRWSMQVAPNGRTFFIDHASRRTTWIDPRNGRAS”, the “soluble on expression in E. coli” value is reported as “soluble”.
For “MSLQLLAEIVTVHTKHPFIIARGGQSEYQVVWVRLIDADGAEGWGEASPSKYYGETADTVMVALQRFAPVLAGADAWSIEAIERELEKAMRWNAAARCAVSAALHDLAARRLGVPLWKMWGLDRQATPISSFTIGIAPDAATLRARVREAAHYPLLKIKLGSSWDREVLRIVREEAPKAQLRVDANAAWTAKQALGMLDVLNEVGVDMLEQPLPPQELAGLRFVRERSNIPVVADESCLVASDIPKLEGIVDGVNIKLAKCGSLREALRMIAVARAHGMRVMCGCMIETTLGIAAAAHFSPLLDDADLDGAALLSDDPFDGPGIPDGRVVLGDAPGLGVTRRAGNEGHHHHHH”, the “soluble on expression in E. coli” value was “soluble”.
For “MKGIIFTEFMELVESKFGLEVLDQVLELSDDEGVYTSVGSYDHRDLVKLIVNLSKVSDIPPEQLQEVFGESVFLNLLRSIPSHASLQQCDNTFQFVRHVESFIHVEVKKLYPDANPPKFDFISETQSELVFDYHSARCMAHVCLGLLKGCAAHFGQVIHIMHQNQTEDGSQVRFWLEAQLEHHHHHH”, the “soluble on expression in E. coli” value was “not soluble”.
For “MKIYLVGGAVRDALLGLPVKDKDWVVVGATPQEMLDAGYQQVGRDFPVFLHPQTHEEYALARTERKSGSGYTGFTCYAAPDVTLEADLQRRDLTINALARDDAGQIIDPYHGRRDLEARLLRHVSPAFGEDPLRVLRVARFAARYAHLSFRIADETLALMREMTAAGELEHLTPERVWKETENALTTRNPQVYFQVLRDCGALRVLFPEIDALFGVPAPAKWHPEIDTGVHTLMTLSMAAMLSPQLDVRFATLCHDLGKGLTPKNLWPRHHGHGPAGVKLVEQLCQRLRVPNDLRDLAKLVAEYHDLIHTFPILQPKTIVKLFDAIDAWRKPQRVEQIALTSEADVRGRTGFEASDYPQGRWLREAWQVAQAVPTKEVVEAGFKGIEIREELTKRRIAAVANWKEKRCPNPAS”, the “soluble on expression in E. coli” value was “not soluble”.
For “MLKDQANQLEFPRDFLGISLADQPNKYYFIIRTQRIVLEADSSIQLIMEKLQSYKSKVALYFDGFQYQLGDFRLRVGKVVPTHSENVRGIVMEVEYLPISSMEKAQKVMEEFLEIWNEALAKRSLPGKFVNIDLNFGEFGLGDIYTPQHTAVRYALVMAHMIATVQAVRG”, the “soluble on expression in E. coli” value was “soluble”.
For “MLTDPIADMLTRIRNATRVYKESTDVPASRFKEEILRILAREGFIKGYERVDVDGKPYLRVYLKYGPRRQGPDPRPEQVIHHIRRISKPGRRVYVGVKEIPRVRRGLGIAILSTSKGVLTDREARKLGVGGELICEVW”, the “soluble on expression in E. coli” value was “soluble”.
For “ERSAVQLSLSSRLQLTLYQYKTCPFCSKVRAFLDFHALPYQVVEVNPVLRAEIKFSSYRKVPILVAQEGESSQQLNDSSVIISALKTYLVSGQPLEEIITYYPAMKAVNDQGKEVTEFGNKYWLMLNEKEAQQVYSGKEARTEEMKWRQWADDWLVHLISPNVYRTPTEALASFDYIVREGKFGAVEGAVAKYMGAAAMYLISKRLKSRHRLQDNVREDLYEAADKWVAAVGKDRPFMGGQKPNLADLAVYGVLRVMEGLDAFDDLMQHTHIQPWYLRVERAITEASPAH”, the “soluble on expression in E. coli” value was “soluble”.
For “MSTTPGTPHGVTHSLMEQGWYWADADRSAVSKALSDQPDGSFIVRNASTPGDYTLSVKFAAQVKLLRIVVKDGKCGFNTDSLTHDSVVRLIEFHRNISLNIFNDALDVRLLYPVSVRRNSQNGKPFFKKGQLQQRMILSAKNDHDWRERLEMENLRAVHLAFERGAKLYDSAHQEMERAESLYHALNQSVRDNEIKLGKLNNLLEAETDVVTQIQGSQTTSEMLKGAFANNKTFVEESIRRINTELTSSKDKKKTLSGILDEIAMKRSNSKTRLCKLMELRSAVYDKMEPALCSRMAAMLDAGAEMINSEPTKVTQLLVDMELKWTPAQYLMCGTSKENAANALIHARYRIAQLDKAVGLKREPQDGIFLIRGSSSHGDKLVLSVLHGERVSHCLIEQNEEGWGFEHSNVYLTTISDFVRYYSHFSLETHADAIKTPLRTPAFDAVTSDTSKPLRNGPGQVFTALPISRKYMEKALLTDDPTKPPESPEPRPDSWDSPSPDTPSSSDSRLVHPTTLPKSIPE”, the “soluble on expression in E. coli” value was “not soluble”.
With “SLGKEVATRATNDERCKILEQRLEQGMVFTEYERILKKRLVDGECSTARLPENAERNRFQDVLPYDDARVELVPTKENNTGYINASHIKVSVSGIEWDYIATQGPLQNTCQDFWQMVWEQGIAIIAMVTAEEEGGREKSFRYWPRLGSRHNTVTYGRFKITTRFRTDSGCYATTGLKMKHLLTGQERTVWHLQYTDWPEHGCPEDLKGFLSYLEEIQSVRRHTNSTSDPQSPNPPLLVHSSAGVGRTGVVILSEIMIACLEHNEVLDIPRVLDMLRQQRMMLVQTLCQYTFVYRVLIQFLKSSRLI” the “soluble on expression in E. coli” value was “soluble”.
